Laboratory results as given in the supplement of paper PMC10126150.
± gives the standard deviation of the averaged measurements.

tested on: ATP; experiment: switch fluorescence ratio, 500 uM ATP over buffer (Cy3 cluster intensity, sum of 5 cycles each) (fold (ratio)); higher = stronger signal-on switching upon ATP binding; sequences stand for … in TCGTCGGCAGCGTCAGATGTGTATAAGAGACAGTTTTTTTTTTTTTTTTTTTTTTTTT…TC; settings: aptamer strand: ATP DNA aptamer (quencher-CACCTGGGGGAGTATTGCGGAGGAAGG + anchor), 100 nM annealed; ATP concentration: 500 uM
Summary of the method: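 Five buffer/ATP imaging cycles were run on Cy3-labelled switching-strand clusters on a modified Illumina MiSeq flow-cell, with NaOH stripping and re-annealing between cycles. In each cycle, clusters annealed to 100 nM quencher-labelled ATP aptamer were imaged in selection buffer, then after 15 min with 500 uM ATP at 22 °C. Per cluster, the fluorescence ratio is summed target-cycle over summed buffer-cycle Cy3 intensity, averaged per switch-domain sequence. Only clusters within 100-1000 RFU were kept.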
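Further: ATP exposure 15 min at 22 °C before imaging.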

Question: How did the switch fluorescence ratio turn out when ATTTCACTGA was run?
Answer: 1.03 ± 0.011

Question: How did the switch fluorescence ratio turn out when TAATTTGGTT was run?
Answer: 1.01 ± 0.026

Question: Which switch fluorescence ratio does the source give for ATTTTTGTCA here?
Answer: 0.985 ± 0.015

Question: For ACGGGGGAAT, which switch fluorescence ratio is on record?
Answer: 0.991 ± 0.02

Question: How did the switch fluorescence ratio turn out when GTTATTAGCG was run?
Answer: 0.969 ± 0.05

Question: With CTTATCGGGG as the sequence, how does the switch fluorescence ratio read?
Answer: 1 ± 0.013

Question: Which switch fluorescence ratio does the source give for TGGGCCGAGG here?
Answer: 1.12 ± 0.063

Question: Which switch fluorescence ratio does the source give for TATTTCGGTT here?
Answer: 1.002 ± 0.0096

Question: With ATGATGTGGA as the sequence, how does the switch fluorescence ratio read?
Answer: 1.01 ± 0.077

Question: Which switch fluorescence ratio does the source give for TGGTTTGCCG here?
Answer: 1.01 ± 0.049

Question: For GGGGGTCCAT, which switch fluorescence ratio is on record?
Answer: 0.954 ± 0.031

Question: Which switch fluorescence ratio does the source give for TGTGACAGGA here?
Answer: 1.02 ± 0.057

Question: Which switch fluorescence ratio does the source give for CTGATTTTAG here?
Answer: 1.02 ± 0.071

Question: For AACGGAGCTT, which switch fluorescence ratio is on record?
Answer: 1.47 ± 0.25

Question: For AGAAGGCCGG, which switch fluorescence ratio is on record?
Answer: 0.98 ± 0.056

Question: How did the switch fluorescence ratio turn out when TATGTTTTCT was run?
Answer: 1.01 ± 0.039

Question: GGGTGAATGG was tested. Which switch fluorescence ratio did it give?
Answer: 0.9976 ± 0.0016

Question: Which switch fluorescence ratio does the source give for TTGGTGTTTA here?
Answer: 1.01 ± 0.022

Question: AGGAAGATCC was tested. Which switch fluorescence ratio did it give?
Answer: 1.002 ± 0.0083

Question: For GGATTTCGTG, which switch fluorescence ratio is on record?
Answer: 0.986 ± 0.024

Question: With TTACTGAGGT as the sequence, how does the switch fluorescence ratio read?
Answer: 0.992 ± 0.017

Question: TAGGCTTTTT was tested. Which switch fluorescence ratio did it give?
Answer: 0.9925 ± 0.0075

Question: Which switch fluorescence ratio does the source give for TGTGTGAGGG here?
Answer: 1.036 ± 0.0086

Question: CATCAGGGCT was tested. Which switch fluorescence ratio did it give?
Answer: 1.06 ± 0.051

Question: With CGGATGGTGT as the sequence, how does the switch fluorescence ratio read?
Answer: 0.97 ± 0.029

Question: Which switch fluorescence ratio does the source give for AATTAACTCT here?
Answer: 1.05 ± 0.02

Question: With TGGTAGTTTG as the sequence, how does the switch fluorescence ratio read?
Answer: 0.9951 ± 0.0039

Question: With CCTTTTTCAC as the sequence, how does the switch fluorescence ratio read?
Answer: 1.03 ± 0.032

Question: Which switch fluorescence ratio does the source give for TTGGGTAATG here?
Answer: 1.01 ± 0.027

Question: With GGGAAAGCAC as the sequence, how does the switch fluorescence ratio read?
Answer: 1.12 ± 0.021

Question: Which switch fluorescence ratio does the source give for ATTGAAGTGC here?
Answer: 1.01 ± 0.02

Question: With CAGGGAGGGA as the sequence, how does the switch fluorescence ratio read?
Answer: 0.992 ± 0.02

Question: With TTTTACCACT as the sequence, how does the switch fluorescence ratio read?
Answer: 1.0422 ± 0.00058

Question: How did the switch fluorescence ratio turn out when AGTAAAGTTA was run?
Answer: 1.008 ± 0.008

Question: How did the switch fluorescence ratio turn out when AGATCGAAGG was run?
Answer: 1.03 ± 0.018

Question: GAGTAGGGGT was tested. Which switch fluorescence ratio did it give?
Answer: 1.01 ± 0.022

Question: How did the switch fluorescence ratio turn out when ACTGTAAGGC was run?
Answer: 1.07 ± 0.02

Question: Which switch fluorescence ratio does the source give for AAGTTGAATT here?
Answer: 0.99 ± 0.029

Question: ACTTTTTGGC was tested. Which switch fluorescence ratio did it give?
Answer: 0.975 ± 0.022

Question: With ATAATGGTTT as the sequence, how does the switch fluorescence ratio read?
Answer: 0.987 ± 0.056

Question: TTTTGAAATT was tested. Which switch fluorescence ratio did it give?
Answer: 1 ± 0.046

Question: How did the switch fluorescence ratio turn out when TTAAAACCTT was run?
Answer: 1.56 ± 0.46

Question: With TCGGTTAATG as the sequence, how does the switch fluorescence ratio read?
Answer: 1 ± 0.042

Question: Which switch fluorescence ratio does the source give for ATTTGAGAAA here?
Answer: 1.01 ± 0.025

Question: How did the switch fluorescence ratio turn out when AAGGTTATTA was run?
Answer: 1 ± 0.023

Question: TGTTATGTGC was tested. Which switch fluorescence ratio did it give?
Answer: 0.968 ± 0.036

Question: TGAGTCTTAA was tested. Which switch fluorescence ratio did it give?
Answer: 1.01 ± 0.027

Question: Which switch fluorescence ratio does the source give for TCGAAGAGCG here?
Answer: 0.976 ± 0.045

Question: How did the switch fluorescence ratio turn out when AAACTCATGA was run?
Answer: 0.983 ± 0.02

Question: GGTCGGGGGC was tested. Which switch fluorescence ratio did it give?
Answer: 1.02 ± 0.031

Question: For AACCCGAGCC, which switch fluorescence ratio is on record?
Answer: 1.196 ± 0.011

Question: With GCGTTGCAGG as the sequence, how does the switch fluorescence ratio read?
Answer: 1.02 ± 0.018

Question: Which switch fluorescence ratio does the source give for GATTTTTCGT here?
Answer: 0.973 ± 0.01

Question: CCAGACTTTT was tested. Which switch fluorescence ratio did it give?
Answer: 0.999 ± 0.043

Question: How did the switch fluorescence ratio turn out when GGTACCTTAG was run?
Answer: 1.059 ± 0.0087

Question: Which switch fluorescence ratio does the source give for GTGTACCGGA here?
Answer: 0.9813 ± 0.0017

Question: With ATCTGGAACG as the sequence, how does the switch fluorescence ratio read?
Answer: 0.988 ± 0.02

Question: For TCATACGTCG, which switch fluorescence ratio is on record?
Answer: 1.03 ± 0.036

Question: How did the switch fluorescence ratio turn out when GAGATGAAAC was run?
Answer: 0.976 ± 0.011

Question: CAACGTTTTT was tested. Which switch fluorescence ratio did it give?
Answer: 1.01 ± 0.037

Question: How did the switch fluorescence ratio turn out when GAGTGGGTGG was run?
Answer: 0.99 ± 0.037

Question: With GGCTAGCCAG as the sequence, how does the switch fluorescence ratio read?
Answer: 1.01 ± 0.011

Question: Which switch fluorescence ratio does the source give for AATAATGGAA here?
Answer: 0.987 ± 0.015

Question: For GTTGGTATAG, which switch fluorescence ratio is on record?
Answer: 1.01 ± 0.025

Question: How did the switch fluorescence ratio turn out when GGGCATTGAA was run?
Answer: 0.9895 ± 0.0022

Question: How did the switch fluorescence ratio turn out when TTTGGCCGTT was run?
Answer: 1.2 ± 0.26

Question: How did the switch fluorescence ratio turn out when GTCGGAGCGA was run?
Answer: 1.83 ± 0.57

Question: Which switch fluorescence ratio does the source give for TTTTTCAATC here?
Answer: 1.07 ± 0.035

Question: CCTTCGGAGT was tested. Which switch fluorescence ratio did it give?
Answer: 3.99 ± 2.3

Question: Which switch fluorescence ratio does the source give for TTATTTTCAG here?
Answer: 0.996 ± 0.053

Question: Which switch fluorescence ratio does the source give for TTACCCCGTG here?
Answer: 1.13 ± 0.022

Question: How did the switch fluorescence ratio turn out when TCATCGGGGT was run?
Answer: 0.994 ± 0.023

Question: ATGTCGATGC was tested. Which switch fluorescence ratio did it give?
Answer: 1.01 ± 0.032

Question: How did the switch fluorescence ratio turn out when TGAAGATCGC was run?
Answer: 1.02 ± 0.018

Question: ATTGATTTTT was tested. Which switch fluorescence ratio did it give?
Answer: 1.01 ± 0.019

Question: How did the switch fluorescence ratio turn out when GTTTGTGCT was run?
Answer: 0.988 ± 0.019

Question: AGTATGAGTC was tested. Which switch fluorescence ratio did it give?
Answer: 1.056 ± 0.01

Question: Which switch fluorescence ratio does the source give for CCTTTGGGTC here?
Answer: 0.98 ± 0.014

Question: For CCGTTTTTAC, which switch fluorescence ratio is on record?
Answer: 4.11 ± 0.83

Question: Which switch fluorescence ratio does the source give for TAGTATTTGC here?
Answer: 1.14 ± 0.13

Question: Which switch fluorescence ratio does the source give for AAGTTGTCTT here?
Answer: 0.999 ± 0.027

Question: For TTAACTTTCA, which switch fluorescence ratio is on record?
Answer: 1.04 ± 0.029

Question: ACACGCAAAA was tested. Which switch fluorescence ratio did it give?
Answer: 1.571 ± 0.0081

Question: CCTGAGTCTG was tested. Which switch fluorescence ratio did it give?
Answer: 1.57 ± 0.038

Question: Which switch fluorescence ratio does the source give for TTGTTGCTTT here?
Answer: 1.02 ± 0.03

Question: How did the switch fluorescence ratio turn out when GGTATTAGTG was run?
Answer: 1.01 ± 0.021

Question: With AATGTGTTTG as the sequence, how does the switch fluorescence ratio read?
Answer: 0.992 ± 0.042

Question: For ATATGAACGA, which switch fluorescence ratio is on record?
Answer: 1.021 ± 0.0066

Question: How did the switch fluorescence ratio turn out when TTCGTTTAGT was run?
Answer: 1.039 ± 0.0026

Question: How did the switch fluorescence ratio turn out when CGGAGAGATG was run?
Answer: 1.042 ± 0.0034

Question: For TTGGGTTGGT, which switch fluorescence ratio is on record?
Answer: 1.01 ± 0.049

Question: Which switch fluorescence ratio does the source give for TTTGTTCGGC here?
Answer: 1 ± 0.033

Question: TAGAATCGTT was tested. Which switch fluorescence ratio did it give?
Answer: 0.97 ± 0.05

Question: How did the switch fluorescence ratio turn out when TCCACGTTGG was run?
Answer: 1.01 ± 0.0067

Question: With CCGGTCAGCC as the sequence, how does the switch fluorescence ratio read?
Answer: 1.11 ± 0.039

Question: Which switch fluorescence ratio does the source give for GCAGTTTGGA here?
Answer: 0.989 ± 0.015

Question: How did the switch fluorescence ratio turn out when GAAGGTATAC was run?
Answer: 1.66 ± 0.18

Question: With TAGGTGGTTT as the sequence, how does the switch fluorescence ratio read?
Answer: 0.989 ± 0.026

Question: Which switch fluorescence ratio does the source give for TGGTTTTGCC here?
Answer: 1.005 ± 0.0082

Question: With GTTGTTAGGG as the sequence, how does the switch fluorescence ratio read?
Answer: 1 ± 0.0046
